Measurements published in paper PMC4012331 (Biochimica et biophysica acta, 2013).

Experiments:
[1] = molecular target: T1, flavodoxin (Fld); apo-Fld (Escherichia coli, UniProt P61949); assay: isothermal titration calorimetry; format: binding
T1 sequence (P61949 2-176): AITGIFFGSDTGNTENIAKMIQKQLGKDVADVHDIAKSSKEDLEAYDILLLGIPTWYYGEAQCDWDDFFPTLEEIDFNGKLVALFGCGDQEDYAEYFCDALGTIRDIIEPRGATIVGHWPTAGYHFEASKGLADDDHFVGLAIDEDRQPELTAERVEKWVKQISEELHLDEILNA

[2] = molecular target: NADP+-dependent flavodoxin oxidoreductase (FNR), Escherichia coli (E. coli) (UniProt P28861); assay: SPR
Sequence of NADP+-dependent flavodoxin oxidoreductase (FNR), Escherichia coli (E. coli) (P28861 whole entry): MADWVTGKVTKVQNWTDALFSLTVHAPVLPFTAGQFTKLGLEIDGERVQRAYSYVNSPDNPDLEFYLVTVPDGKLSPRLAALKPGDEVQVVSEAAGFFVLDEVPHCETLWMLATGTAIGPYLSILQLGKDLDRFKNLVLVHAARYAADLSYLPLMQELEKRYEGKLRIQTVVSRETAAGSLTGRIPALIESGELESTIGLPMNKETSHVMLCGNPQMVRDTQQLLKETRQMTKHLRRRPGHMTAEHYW

[3] = molecular target: pyruvate formate-lyase activating enzyme (PFL-AE), Escherichia coli (Escherichia coli) (UniProt P0A9N6); assay: SPR
Sequence of pyruvate formate-lyase activating enzyme (PFL-AE), Escherichia coli (Escherichia coli) (P0A9N6 2-246): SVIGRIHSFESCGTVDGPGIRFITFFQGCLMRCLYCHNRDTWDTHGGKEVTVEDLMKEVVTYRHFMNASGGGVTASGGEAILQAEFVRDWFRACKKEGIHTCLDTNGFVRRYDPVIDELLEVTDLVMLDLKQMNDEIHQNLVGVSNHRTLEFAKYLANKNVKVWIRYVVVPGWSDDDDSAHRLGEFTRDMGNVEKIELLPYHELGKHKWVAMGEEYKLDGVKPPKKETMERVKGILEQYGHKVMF

Row | Compound | Kd [1] [µM] | Kd [2] [µM] | Kd [3] [µM]
1 | Cc1cc2nc3c(=O)[nH]c(=O)nc-3n(C[C@H](O)[C@H](O)[C@H](O)COP(=O)(O)O)c2cc1C [FMN] | 0.0056 ± 0.0012 | – | –
2 | holo-flavodoxin (Fld with bound FMN cofactor), Escherichia coli (from UniProt P61949 2-176) (natural protein) | – | 3.7 | 23.3
